Experimental data: article PMC8440923, “Peptides Targeting the Interaction Between Erb1 and Ytm1 Ribosome Assembly Factors” (Frontiers in Molecular Biosciences, 2021)

B1: Ytm1 (Chaetomium thermophilum ribosome assembly factor) (natural protein)
chain: MDAPMEDAPAPVAQVKVIFTTTEPDLELPESKRQLLVPADIRRYGLSRILNSESMLDTGSIPFDFLINGSFLRSSLEDYLTSNGLSLETTLTLQYVRSLIPPVYEASFEHDDWVSAVDVLSATSPAGRWSSAANSSAAVQPGQERVLSASYDGLLRIWNASGSVIATSPSGSHGGHTASIKAAKFLTSDRLASAGMDRTVRVWKYTESDHFTGELKPTLELYGHTGSVDWLDVDGHSKHILTASADGAIGFWSASKASAPEPDASLLPGAHVSKRRKATSSVSTAQRGPLGLWSIHTAPATAAIFDPRDRTVAYSASQDHTVRTLDLTTGQVVSTLTLTHPLLSLSALTRAGTTSPLLAAGTSARHITMVDPRASSATTSVMTLRGHANKVVSLSPSPENEYSLVSGSHDGTCRVWDLRSVRPATKEEGSLGGVSEPVYVIERESWASKGKKKRPVAGDGCKVFSVVWDKLGIFSGGEDKKVQVNRGRNIVTEQK
notes: Ytm1, Chaetomium thermophilum; YTM1 gene amplified from total cDNA and cloned in pOPIN-F; For MST, Ytm1 was labelled with the Red-NHS second-generation dye; source: Sf9 insect cells (baculovirus), purified (Histrap-HP Ni, Superdex 200 SEC)
B2: Erb1 (Chaetomium thermophilum ribosome assembly factor) (natural protein, UniProt G0SCK6 1-801, looked up)
chain: MGSKIVEKKRKSRDSDSESDNELGDGLFDGVLSQSEDEEDYIPSSEVDEDDDDDADESASEDSDDSNDSEDDEVEEDDEALLSDEIPSEGESEKDQDLAESKESKQDQDKEPSEPEILEPFVDPPRKEDEELEDRNYRIEKDANGGIRYVYDEIDPVYDSDDTDYNVPVNTIGNIPLSFYDSYPHIGYDINGKKIMRPATGDALQNLLDSIEVPEGWTGLTDPNTGKPLNLSRDELELIRKVQQGLIPDDVEDPYPDTVEWFTSVEEKMPLSAAPEPKRRFIPSKNEAKQIMKLVRAIREGRILPYKPPEEREREELEKEEEFYDLWQNEEPQPPNPMHIPAPKLPPPGYDLSYNPPPEYLPTKEEREEWEKMDPEDREKDYLPTKYDSLRKVPAWGNFVKERFERCMDLYLAPRVRKNRLNIDPNSLLPKLPSPDELKPFPTVQQTIFRGHEGRVRSVAIDPTGVALATGGDDGTVRVWELLTGRQVWSVKLNGDEAVNTVRWRPTKDTFILAAAAGEDIFLMIPTHPSVTPALDQASRDILNAGFGHATNGKQQANLPPGKEPPGKWARPGTRLEDEGVLLRITVRSTIKAISWHRRGDHFATVSPSGQRSSVAIHTLSKHLTQIPFRKLNGLAQTASFHPLRPLFFVATQRSIRCYDLQKLELVKIVQPGAKWISSFDVHPGGDNLVVGSYDKRLLWHDLDLSNRPYKTMRFHTEAIRAVRFHKGGLPLFADASDDGSLQIFHGKVPNDQLENPTIVPVKMLKGHKVVNKLGVLDIDWHPREPWCVSAGADGTARLWM
notes: Erb1, Chaetomium thermophilum; cloned in pET28-NKI/LIC 6His/3C; Erb1 was held on Ni-NTA biosensors; source: E. coli (DE3) BL21 CodonPlus (RIPL), auto-induction, purified (Histrap-HP Ni, HiTrap Heparin, Superdex 200 SEC)

How the values were obtained:
Conditions in all cases: both partners purified
[1] = target: B2; test: BLI; BLItz; Erb1 (80 µg/ml) immobilised on Ni-NTA biosensor, increasing concentrations of Ytm1 as analyte; 50 mM HEPES pH 7.5, 150 mM NaCl, 5% glycerol, 2 mM BME; reference without peptide
[2] = target: B2; test: BLI; interference assay; Erb1 (80 µg/ml) immobilised on Ni-NTA biosensor; 5 µM Ytm1 preincubated 30 min with equimolar Erb1-derived peptide (P1-P3) as analyte; 50 mM HEPES pH 7.5, 150 mM NaCl, 5% glycerol, 2 mM BME
[3] = target: B2; test: BLI; BLItz; Ytm1 (80 µg/ml) immobilised on Ni-NTA biosensor, Erb1 as analyte; 50 mM HEPES pH 7.5, 150 mM NaCl, 5% glycerol, 2 mM BME; reference without peptide
[4] = target: B1; test: BLI; interference assay; Ytm1 (80 µg/ml) immobilised on Ni-NTA biosensor; 20 µM Erb1 preincubated with equimolar Ytm1-derived peptide (P4-P6) as analyte; 50 mM HEPES pH 7.5, 150 mM NaCl, 5% glycerol, 2 mM BME

Binder | Kd [1] [nM] | KD after preincubation of Ytm1 with equimolar P1 [2] [nM] | KD after preincubation of Ytm1 with equimolar P3 [2] [nM] | Kd [3] [nM] | KD after preincubation of Erb1 with equimolar P6 [4] [nM]
B1 | 32.3 | 190 | 170 | 229 | 
B2 |  |  |  |  | 2400
